# B1: Biotinylated full length PcrA (Geobacillus stearothermophilus), wild type [modified: biotin; biotin] [Geobacillus stearothermophilus] / YvgS/HelD (SF1 helicase), Bacillus subtilis [B. subtilis 168 (endogenous in the cell … (parent)
# chain 1: MNFLSEQLLAHLNKEQQEAVRTTEGPLLIMAGAGSGKTRVLTHRIAYLMAEKHVAPWNILAITFTNKAAREMRERVQSLLGGAAEDVWISTFHSMCVRILRRDIDRIGINRNFSILDPTDQLSVMKTILKEKNIDPKKFEPRTILGTISAAKNELLPPEQFAKRASTYYEKVVSDVYQEYQQRLLRNHSLDFDDLIMTTIQLFDRVPDVLHYYQYKFQYIHIDEYQDTNRAQYTLVKKLAERFQNICAVGDADQSIYRWRGADIQNILSFERDYPNAKVILLEQNYRSTKRILQAANEVIEHNVNRKPKRIWTENPEGKPILYYEAMNEADEAQFVAGRIREAVERGERRYRDFAVLYRTNAQSRVMEEMLLKANIPYQIVGGLKFYDRKEIKDILAYLRVIANPDDDLSLLRIINVPKRGIGASTIDKLVRYAADHELSLFEALGELEMIGLGAKAAGALAAFRSQLEQWTQLQEYVSVTELVEEVLDKSGYREMLKAERTIEAQSRLENLDEFLSVTKHFENVSDDKSLIAFLTDLALISDLDELDGTEQAAEGDAVMLMTLHAAKGLEFPVVFLIGMEEGIFPHNRSLEDDDEMEEERRLAYVGITRAEEELVLTSAQMRTLFGNIQMDPPSRFLNEIPAHLLETASRRQAGASRPAVSRPQASGAVGSWKVGDRANHRKWGIGTVVSVRGGGDDQELDIAFPSPIGIKRLLAKFAPIEKV
# chain 2: MNQQDKEWKEEQSRIDEVLKELEKKERFLETSAGGLKHDIIGLRKSFWEDVKVNFDDAHEAIETMASIKQQAELLSDREHNHRRMDQQLKRIHQLKKSPYFGRIDFIENGEEQAERIYIGLASCLDEKEEHFLIYDWRAPISSLYYNYSPGKAEYEVPGETIEGEMVLKRQFMIKNGTLKAMFNTDMTIGDEMLQEVLSHHSDTQMKNIVSTIQKEQNQIIRNEKSKILIVQGAAGSGKTSAALQRVAYLLYRHRGVIDAGQIVLFSPNFLFNSYVSSVLPELGEENMEQATFQEYIEHRLGRKFKCESPFDQLEYCLTETKGGDFPTRLAGITWKAGLSFQQFINEYVTRLSSEGMIFKNIIFRGQKLITKEQIQSYFYSLDQNHSIPNRMEQTAKWLLSELNKLEKKERRKDWVVHEAELLDKEDYLDVYKKLQERKRFSESTFNDYQREQQLLAAIIVKKAFKPLKQAVRLLAFLDVTQLYLQLFSGWGGKFQHEKMDAIGELTRSAFTDNKLLYEDAAPFLYMQDLIEGRKKNTKIKHLFIDEAQDYSPFQMAYMRSIFPAASMTVLGDINQSIYAHTINGDQRMDACFEDEPAEYVRLKRTYRSTRQIVEFTKAMLQDGADIEPFNRSGEMPLVVKTEGHESLCQKLAQEIGRLKKKGHETIAVICKTAHQCIQAHAHMSEYTDVRLIHKENQPFQKGVCVIPVYLAKGIEFDAVLVYDASEEHYHTEHDRRLLYTACTRAMHMLAVFYTGEASPFVTAVPPHLYQIAE
# Variants of: B1
# Experiment: pulldown quantified by mass spectrometry
# Details: with YvgS/HelD (SF1 helicase), parent: 97, read off a plot
row,screen value,Variant
1,9.5,chain 1 K712A
2,3.5,chain 1 L714A

# From article PMC5397179
